From patent US20190071490A1, “Preventing Post-Ictal Headaches” (Beth Israel Deaconess Medical Center, Inc., priority 2017, published 2019)
Changes are numbered by the printed parent chain. Numbers in names are those of the source.

T1: rat α-CGRP (Rattus norvegicus, UniProt P01256)
T1 construct: rat α (1-37); purchased GenScript Corporation or Global Peptide Services
T1 sequence (P01256 83-119 limits assumed): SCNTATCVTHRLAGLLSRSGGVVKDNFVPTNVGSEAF

T2: human α-CGRP (Homo sapiens, UniProt P06881)
T2 construct: 1-37 (WT); purchased GenScript Corporation or Global Peptide Services
T2 sequence (P06881 83-119 limits assumed): T1 sequence (P01256 83-119 limits assumed) with S1A, N3D, D25N, E35K

B1: M22: G1 variant; L1 R28W; HC-FW3 L99T (antibody, V domains shown)
VH: EVQLVESGGGLVQPGGSLRLSCAASGFTFSNYWISWVRQAPGKGLEWVAEIRSESDASATHYAEAVKGRFTISRDNAKNSLYLQMNSLRAEDTAVYYCTAYFDYGLAIQNYWGQGTLVTVSS
VL: EIVLTQSPATLSLSPGERATLSCKASKWVTTYVSWYQQKPGQAPRLLIYGASNRYLGIPARFSGSGSGTDFTLTISSLEPEDFAVYYCSQSYNYPYTFGQGTKLEIK
B2: M34: G1 variant; L1 R28N T30G; H2 E54K A57N S58T; HC-FW3 L99T A100V (antibody, V domains shown)
VH: B1 VH with E54K, A57N, S58T, A100V
VL: B1 VL with W28N, T30G
B3: M41: G1 variant; L1 R28N; L2 G50A L56T; H2 E54K A57N E64D; HC-FW3 L99T A100V (antibody, V domains shown)
VH: B1 VH with E54K, A57N, E64D, A100V
VL: B1 VL with W28N, G50A, L56T
B4: M31: G1 variant; L1 R28N T30G; H2 E54K A57G; HC-FW3 L99T A100V (antibody, V domains shown)
VH: B1 VH with E54K, A57G, A100V
VL: B1 VL with W28N, T30G
B5: M33: G1 variant; L1 R28N T30G; H2 E54K A57N S58G; HC-FW3 L99T A100V (antibody, V domains shown)
VH: B1 VH with E54K, A57N, S58G, A100V
VL: B1 VL with W28N, T30G
B6: M26: G1 variant; L1 R28N; H2 A57G; HC-FW3 L99T A100V (antibody, V domains shown)
VH: B1 VH with A57G, A100V
VL: B1 VL with W28N
B7: M23: G1 variant; L1 R28G; HC-FW3 L99T A100V (antibody, V domains shown)
VH: B1 VH with A100V
VL: B1 VL with W28G
B8: M37: G1 variant; L1 R28N T30S; H2 A57G; HC-FW3 L99T A100V (antibody, V domains shown)
VH: B1 VH with A57G, A100V
VL: B1 VL with W28N, T30S
B9: M30: G1 variant; L1 R28N T30G; H2 E54K A57E; HC-FW3 L99T A100V (antibody, V domains shown)
VH: B1 VH with E54K, A57E, A100V
VL: B1 VL with W28N, T30G
B10: M29: G1 variant; L1 R28N T30G; HC-FW3 L99T A100V (antibody, V domains shown)
VH: B1 VH with A100V
VL: B1 VL with W28N, T30G
B11: M24: G1 variant; L1 R28L; HC-FW3 L99T A100V (antibody, V domains shown)
VH: B1 VH with A100V
VL: B1 VL with W28L
B12: M36: G1 variant; L1 R28N T30R; HC-FW3 L99T A100V (antibody, V domains shown)
VH: B1 VH with A100V
VL: B1 VL with W28N, T30R
B13: M39: G1 variant; L1 R28N; L2 G50A L56T; H2 A57N S58Y; HC-FW3 L99T A100V (antibody, V domains shown)
VH: B1 VH with A57N, S58Y, A100V
VL: B1 VL with W28N, G50A, L56T
B14: M27: G1 variant; L1 R28N T30A; HC-FW3 L99T A100V (antibody, V domains shown)
VH: B1 VH with A100V
VL: B1 VL with W28N, T30A
B15: M38: G1 variant; L1 R28N T30W; HC-FW3 L99T A100V (antibody, V domains shown)
VH: B1 VH with A100V
VL: B1 VL with W28N, T30W
B16: M32: G1 variant; L1 R28N T30G; H2 E54K A57H; HC-FW3 L99T A100V (antibody, V domains shown)
VH: B1 VH with E54K, A57H, A100V
VL: B1 VL with W28N, T30G
B17: M45: G1 variant; L1 R28N; L2 G50A L56T; H2 E54K A57N S58E E64D; HC-FW3 L99T A100V (antibody, V domains shown)
VH: B1 VH with E54K, A57N, S58E, E64D, A100V
VL: B1 VL with W28N, G50A, L56T
B18: M44: G1 variant; L1 R28N; L2 G50A L56T; H2 E54K A57N S58E; HC-FW3 L99T A100V (antibody, V domains shown)
VH: B1 VH with E54K, A57N, S58E, A100V
VL: B1 VL with W28N, G50A, L56T
B19: M35: G1 variant; L1 R28N T30G; H2 E54K A57S; HC-FW3 L99T A100V (antibody, V domains shown)
VH: B1 VH with E54K, A57S, A100V
VL: B1 VL with W28N, T30G
B20: M28: G1 variant; L1 R28N T30D; H2 E54R A57N; HC-FW3 L99T A100V (antibody, V domains shown)
VH: B1 VH with E54R, A57N, A100V
VL: B1 VL with W28N, T30D
B21: M42: G1 variant; L1 R28N; L2 G50A L56T; H2 E54K A57N H61F; HC-FW3 L99T A100V (antibody, V domains shown)
VH: B1 VH with E54K, A57N, H61F, A100V
VL: B1 VL with W28N, G50A, L56T
B22: M40: G1 variant; L1 R28N; L2 G50A L56T; H2 E54K A57L; HC-FW3 L99T A100V (antibody, V domains shown)
VH: B1 VH with E54K, A57L, A100V
VL: B1 VL with W28N, G50A, L56T
B23: M43: G1 variant; L1 R28N; L2 G50A L56T; H2 E54K A57N S58C; HC-FW3 L99T A100V (antibody, V domains shown)
VH: B1 VH with E54K, A57N, S58C, A100V
VL: B1 VL with W28N, G50A, L56T

The molecules below were run against T1, rat α-CGRP (assay: Biacore SPR affinity of Fab fragments to N-biotinylated rat α-CGRP on SA chip). Conditions: 37° C., screening mode except underlined values.
Type: binding
In short: (§1)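 HBS-EP pH 7.4 running buffer at 25° C. or 37° C.; N-biotinylated CGRP captured on streptavidin SA chip (<50 RU for kinetics), Fab titrated over surface with regeneration by 25 mM NaOH/25% ethanol. Titrations globally fit to 1:1 Langmuir model; KD=koff/kon, with 2-hour dissociation for very slow off-rates.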

α-rat koff [s⁻¹]	Molecule
0.0011	B1
0.00217	B2
0.00453	B3
0.00361	B4
0.00922	B5
0.000924	B6
0.000799	B7
0.00145	B8
0.00638	B9
0.00359	B10
0.00104	B11
0.00479	B12
0.00995	B13
0.00341	B14
0.00511	B15
0.00296	B16
0.00558	B17
0.00613	B18
0.00399	B19
0.00125	B20
0.00752	B21
0.36	B22
0.00453	B23

What follows are molecules tested against T2, human α-CGRP (assay: Biacore SPR affinity of Fab fragments to N-biotinylated human α-CGRP on SA chip). Conditions: 37° C., screening mode except underlined values.
Type: binding
In short: as §1

α-human koff [s⁻¹]	Molecule
0.000116	B1
0.000646	B2
0.00021	B3
0.000347	B4
0.00075	B5
0.000148	B6
0.00013	B7
0.000226	B8
0.00059	B9
0.00038	B10
0.000148	B11
0.000239	B12
0.000425	B13
0.000357	B14
0.000218	B15
0.000271	B16
0.000211	B17
0.00021	B18
0.000339	B19
9.96e-05	B20
0.000417	B21
0.00128	B22
0.000263	B23
